# T1: ERK2-phosphorylated human PPARγ2 AF-1 domain (pS112 + pT75), residues 1-136 (human, UniProt P37231-1 1-136)
# T1 sequence: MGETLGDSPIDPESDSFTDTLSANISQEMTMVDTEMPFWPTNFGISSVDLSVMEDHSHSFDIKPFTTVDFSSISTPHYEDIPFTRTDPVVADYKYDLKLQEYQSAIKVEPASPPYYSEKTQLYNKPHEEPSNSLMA
# Target: T1, ERK2-phosphorylated human PPARγ2 AF-1 …
# Experiment: NMR titration
binder,measurement,value
Pin1 PPIase domain (residues 42-163) (domain or fragment) SSGGKNGQGEPARVRCSHLLVKHSQSRRPSSWRQEKITRTKEEALELINGYIQKIKSGEEDFESLASQFSDCSSAKARGDLGAFSRGQMQKPFEDASFALRTGEMSGPVFTDSGIHIILRTE,binding result,binds
